# B1: anti-CD16a antibody 3G8 (antibody)
# chain 1: QVTLKESGPGILQPSQTLSLTCSFSGFSLRTSGMGVGWIRQPSGKGLEWLAHIWWDDDKRYNPALKSRLTISKDTSSNQVFLKIASVDTADTATYYCAQINPAWFAYWGQGTLVTVS
# chain 2: DIVLTQSPASLAVSLGQRATISCKASQSVDFDGDSFMNWYQQKPGQPPKLLIYTTSNLESGIPARFSASGSGTDFTLNIHPVEEEDTATYYCQQSNEDPYTFGGGTKLELK
# B2: anti-CD16a antibody F9H4 (antibody, V domains shown)
# VH: QVQLQQPGSELVRPGASVKLSCKASGYTFTSYWMHWVKQRHGQGLEWIGNIYPGSGSTNYDEKFKSKGTLTVDTSSSTAYMHLGSLTSEDSAVYYCTMRYGGYYGYYFDYWGQGTTLTVSS
# VL: EIVLTQSPTTMAASPGEKITITCSTTSSISSNYLHWYQQKPGFSPKLLIYRTSNLASGVPARFSGSGSGTSYSLTIGTMEAEDVATYYCQQGSSIPLTFGAGTKLELKR
# notes: also called F9H14
# B3: biotinylated human CD64 protein (receptor, UniProt P12314 16-288, looked up)
# chain: QVDTTKAVITLQPPWVSVFQEETVTLHCEVLHLPGSSSTQWFLNGTATQTSTPSYRITSASVNDSGEYRCQRGLSGRSDPIQLEIHRGWLLLQVSSRVFTEGEPLALRCHAWKDKLVYNVLYYRNGKAFKFFHWNSNLTILKTNISHNGTYHCSGMGKHRYTSAGISVTVKELFPAPVLNASVTSPLLEGNLVTLSCETKLLLQRPGLQLYFSFYMGSKTLRGRNTSSEYQILTARREDSGLYWCEAATEDGNVLKRSPELELQVLGLQLPTP
# modifications: biotinylated
# notes: also called human Fc receptor CD64
# B4: chF9H4-DANA, chimeric F9H4 with hIgG1 CH2-CH3 carrying D265A N297A (antibody)
# heavy: QVQLQQPGSELVRPGASVKLSCKASGYTFTSYWMHWVKQRHGQGLEWIGNIYPGSGSTNYDEKFKSKGTLTVDTSSSTAYMHLGSLTSEDSAVYYCTMRYGGYYGYYFDYWGQGTTLTVSSAKTTAPSVYPLAPVCGDTTGSSVTLGCLVKGYFPEPVTLTWNSGSLSSGVHTFPAVLQSDLYTLSSSVTVTSSTWPSQSITCNVAHPASSTKVDKKIEPRGPTIKPCPPCKCPAPELLGGPSVFLFPPKPKDTLMISRTPEVTCVVVAVSHEDPEVKFNWYVDGVEVHNAKTKPREEQYASTYRVVSVLTVLHQDWLNGKEYKCKVSNKALPAPIEKTISKAKGQPREPQVYTLPPSRDELTKNQVSLTCLVKGFYPSDIAVEWESNGQPENNYKTTPPVLDSDGSFFLYSKLTVDKSRWQQGNVFSCSVMHEALHNHYTQKSLSLSPGK
# light: EIVLTQSPTTMAASPGEKITITCSTTSSISSNYLHWYQQKPGFSPKLLIYRTSNLASGVPARFSGSGSGTSYSLTIGTMEAEDVATYYCQQGSSIPLTFGAGTKLELKRADAAPTVSIFPPSSEQLTSGGASVVCFLNNFYPKDINVKWKIDGSERQNGVLNSWTDQDSKDSTYSMSSTLTLTKDEYERHNSYTCEATHKTSTSPIVKSFNRNEC
# notes: also called chF8H4-DANA; F9H4-hIG1-DANA; copies: 2 + 2
# What was measured:
# [1] = target: human CD16a on cells (primary NK cells; engineered reporter cells) (human, UniProt P08637 17-254); assay: cell-based or functional assay
# [2] = target: T1, human CD16a protein (human, UniProt P08637 17-208, biotinylated in the bead assay (FIG. 4B, 4C)); assay: ELISA on human CD16a protein
# T1 construct: construct not described; also called biotinylated CD16a; FcγRIIIa
# [3] = target: T2, recombinant CD16a D2 domain (UniProt P08637 107-208, limits assumed); assay: ELISA, immobilised CD16a D2 domain [panel D2]
# T2 construct: domain: D2
# Experimental: FIGS. 4A, 4B, 4C, 4D, 4E, and 4F illustrate the characterization of F9H4. FIG. 4A. An ELISA was performed with immobilized F9H4 or the positive controls, respectively. For detection, biotinylated antibodies against the indicated subclasses of murine IgG were used. From left to right: Anti-mIgG1, anti-mIgG2a, anti-mIgG2b, anti-mIgG3. FIG. 4B. Validation of a bead assay to assess CD16a binding to hIgG1. […] Two left peaks (overlapping): uncoated and DANA mutant. Right peak: hIgG1. FIG. 4C. Bead assay for CD16a binding to hIgG1. hIgG1-coated beads were incubated with 1 μg/mL biotinylated CD16a plus the indicated antibodies, followed by incubation with PE-labelled streptavidin and analysis by flow cytometry. Peaks from left to right: 30, 10, 3, and 1 μg/mL. FIG. 4D. Jukart cells were engineered to express human CD16a and luciferase in response to CD16a engagement. Cells were treated overnight with the indicated antibodies, followed by addition of luciferin and analyses in plate reader. […] Data represent two (FIG. 4D) or three (FIGS. 4A, 4B, 4C, and 4F) independent experiments, are mean+/−SE of quadruplicates (FIG. 4 D), and were analyzed by non-linear regression (FIGS. 4D and 4F).
# To shed light into the mechanism by which F9H4 inhibit the cleavage, the two immunoglobulin-like domains, D1 and D2 of CD16a were examined. […] It was determined by ELISA that F9H4 binds full length CD16a and D1, but not D2. […]
# [4] = target: T3, hIgG wild type; assay: ELISA, immobilised antibody detected with biotinylated human CD64
# T3 construct: it may be the same as hIgG1
# Experimental: (§1) FIGS. 7A, 7B, and 7C illustrate the properties of chF9H4-DANA, a chimeric antibody in which the variable and the CH1 region of F9H4 is fused to the CH2 and CH3 regions of hIgG1 comprising a D265A N297A (DANA) mutation (labeled as “F9H4-hIG1-DANA” in FIGS. 7A, 7B, and 7C). FIG. 7A. The indicated antibodies were immobilized in ELISA plates and detected by biotinylated human CD64 protein, which was added in the indicated concentrations. Highest absorbance for hIgG wild type. FIG. 7B. ELISA for reactivity of antibodies against human CD16a. Highest absorbance for F9H4-hIG1-DANA. FIG. 7C. Inhibition of CD16a shedding assay with primary NK cells that were treated with 30 ng/mL PMA to induce CD16a shedding. Highest absorbance for F9H4-hIG1-DANA. Data represent three independent experiments (FIGS. 7A, 7B, and 7C) and mean+/−SD of triplicates even though the SD bars are so small that cannot be seen (FIG. 7C).
# [5] = target: T1, human CD16a protein; assay: ELISA on human CD16a
# [6] = target: B3; assay: ELISA, immobilised antibody detected with biotinylated human CD64
# Experimental: as §1
# T1 sequence (P08637 17-208 limits assumed): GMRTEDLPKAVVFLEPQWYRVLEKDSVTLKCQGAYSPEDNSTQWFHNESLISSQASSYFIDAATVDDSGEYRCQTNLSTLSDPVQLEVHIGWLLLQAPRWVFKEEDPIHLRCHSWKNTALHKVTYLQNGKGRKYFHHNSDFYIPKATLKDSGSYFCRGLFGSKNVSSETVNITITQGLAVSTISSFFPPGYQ
# T2 sequence (P08637 107-208 limits assumed): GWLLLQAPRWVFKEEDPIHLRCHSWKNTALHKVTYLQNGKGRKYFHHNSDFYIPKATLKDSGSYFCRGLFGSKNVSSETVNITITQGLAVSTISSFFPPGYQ
# Sequence of human CD16a on cells (primary NK cells; engineered reporter cells) (P08637 17-254, change not shown): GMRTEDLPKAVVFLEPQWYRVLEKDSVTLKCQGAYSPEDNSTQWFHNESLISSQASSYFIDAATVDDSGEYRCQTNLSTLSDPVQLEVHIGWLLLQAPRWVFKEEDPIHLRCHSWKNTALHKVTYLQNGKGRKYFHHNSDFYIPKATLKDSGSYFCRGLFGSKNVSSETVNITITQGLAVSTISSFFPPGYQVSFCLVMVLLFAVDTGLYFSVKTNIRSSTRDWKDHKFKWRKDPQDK
binder,measurement,setting,value
B1,"EC50 (read off the curve), luciferase reporter of CD16a engagement (RLU)",[1],~0.1 µg/mL
B2,EC50 (read off the curve),[2],~0.001 µg/mL
same,binding result,[3],no binding (tested: 10 µg/mL)
B3,EC50 (read off the curve),[4],~0.006 µg/mL
B4,EC50 (read off the curve),[5],~0.04 µg/mL
same,binding result,[6],no binding (tested: 1 µg/mL)

# Source: patent US20260028405A1 (ICAHN SCHOOL OF MEDICINE AT MOUNT SINAI, published 2026)
